Laboratory results from patent US20230272055A1 (Incyte, published 2023).

T1: Human Type 1 mutCALR (human)
T1 chain: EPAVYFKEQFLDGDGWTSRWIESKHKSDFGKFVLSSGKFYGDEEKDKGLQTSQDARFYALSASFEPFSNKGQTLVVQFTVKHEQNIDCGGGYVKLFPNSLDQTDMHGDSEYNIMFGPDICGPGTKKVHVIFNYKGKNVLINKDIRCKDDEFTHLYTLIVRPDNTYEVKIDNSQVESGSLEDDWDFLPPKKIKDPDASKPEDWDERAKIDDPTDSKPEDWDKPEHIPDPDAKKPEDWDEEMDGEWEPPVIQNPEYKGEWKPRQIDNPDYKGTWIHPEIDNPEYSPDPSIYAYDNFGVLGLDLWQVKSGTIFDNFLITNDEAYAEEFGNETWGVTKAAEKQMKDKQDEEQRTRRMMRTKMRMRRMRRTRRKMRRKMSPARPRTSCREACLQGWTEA

T2: human Type 1 mutCALR (52 bp deletion) (human)
T2 construct: also called human mutCALR Type 1; mutant CALR
T2 chain: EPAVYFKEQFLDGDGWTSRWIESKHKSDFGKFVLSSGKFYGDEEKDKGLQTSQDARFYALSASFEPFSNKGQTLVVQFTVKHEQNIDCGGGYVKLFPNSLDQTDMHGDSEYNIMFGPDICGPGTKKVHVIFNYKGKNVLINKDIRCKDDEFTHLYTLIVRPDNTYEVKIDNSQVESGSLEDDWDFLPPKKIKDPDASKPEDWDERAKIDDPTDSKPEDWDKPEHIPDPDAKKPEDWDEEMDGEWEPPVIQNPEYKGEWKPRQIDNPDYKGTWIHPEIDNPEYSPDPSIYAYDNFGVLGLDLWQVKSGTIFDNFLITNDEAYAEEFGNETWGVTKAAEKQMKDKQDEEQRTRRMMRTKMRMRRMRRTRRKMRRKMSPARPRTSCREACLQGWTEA


What was measured:
[1] = biological target: T1, Human Type 1 mutCALR; assay: cell-based or functional assay
[2] = biological target: T1, Human Type 1 mutCALR; assay: cell-based or functional assay
[3] = biological target: T1, Human Type 1 mutCALR; assay: cell-based or functional assay
[4] = biological target: MBP protein (UniProt P0AEX9 27-392 = MBP); assay: SPR (Biacore 8K), antibody captured on anti-human IgG (Fc), MBP injected
[5] = biological target: T3, recombinant Flag tag_GFP_tev_hmutCALR Type 1 (human); assay: HTRF competition: preformed complex of 5 nM Flag-GFP-mutCALR Type 1 and 80 nM His-MPL, anti-FLAG-Europium / anti-6xHis-APC, 90 min reading; blocked ligand: His-MPL
T3 construct: also called FLAG-GFP-tev-mutCALR
Experimental: HTRF detection solution (2 nM anti-FLAG-Europium, and 100 nM anti-6×His-SureLight® APC) was then added and the plate was read on BMG PHERAstar FSX using kinetic HTRF protocol, obtaining readings every 15 minutes for 120 minutes total. […] Percent-of-control values were obtained by dividing the background-subtracted HTRF Ratios for each test well by the buffer control well in the same plate row.

[6] = biological target: T2, human Type 1 mutCALR (52 bp deletion); assay: flow cytometry on BaF3 cells stably expressing human MPL and human mutCALR Type 1, goat anti-human R-PE secondary, GMFI
Experimental: Approximately 200,000 cells/well were added to 96-well plates and stained with the indicated concentration of antibodies for 30 minutes on ice. Cells were then washed and stained with goat anti-human secondary conjugated to R-phycoerythrin (R-PE) (Jackson Immuno Research Laboratories) for 30 minutes on ice. The cells were then washed again and analyzed by flow cytometry.

| Binder | IC50 of inhibition of cell proliferation (BaF3 cells expressing MPL/mutCALR Type 1) [1] | IC50 of inhibition of cell proliferation (Ba/F3 cells with MPL and mutCALR Type 1) [3] | other results |
| --- | --- | --- | --- |
| anti-mutCALR antibody clone 36 (antibody, human IgG1, lambda, V domains shown) VH: QVQLVQSGAEVKKPGATVKISCKVSGYSFTDYFIHWVQQAPGKGLAWVGLVDPEDGETIYAEKFQGRVTITADTSTDTAYMELSSLRSEDTAVYYCATPGGILTDPDAFDIWGQGTMVTVSS VL: QSALTQPRSVSGSPGQSVTISCAGTGSDVGGYNYVSWYQHHPGKAPKLMIYDVNKRPSGVPDRFSGSKSGNTASLTISGLQAEDEADYYCSSYTSSSTFYVFGTGTKVTVLG | 0.98 µg/mL | 0.0905 µg/mL | Log IC50 of inhibition of cell proliferation, antibody + ruxolitinib (Ba/F3-TPOR/mutCALR type 1 cells); extrapolated from fitted curve [2]: -3.88 Log IC50 (µg/mL) |
| anti-mutCALR antibody clone 35 (antibody, human IgG1, lambda, V domains shown) VH: QVQLVQSGAEVKKPGATVKISCKVSGYSFTDYFIHWVQQAPGKGLAWVGLVDPEDGETIYAERFQGRVTITADTSTDTAYMELSSLRSEDTAVYYCATPGGILTDPDAFDIWGQGTMVTVSS VL: QSALTQPASVSGSPGQSITISCTGTSSDVGGYNYVSWYQQHPGKAPKLMIYEVSNRPSGVSNRFSGSKSGNTASLTISGLQAEDEADYYCSSYTSSSTPYVFGTGTKVTVLG | 2.18 µg/mL | 0.088 µg/mL |  |
| anti-mutCALR antibody clone 37 (antibody, human IgG1, lambda, V domains shown) VH: QVQLVQSGAEVKKPGATVKISCKVSGYSFTDYFIHWVQQAPGKGLAWVGLVDPEDGETIYAEKFQGRVTITADTSTDTAYMELSSLRSEDTAVYYCATPGGILTDPDAFDIWGQGTMVTVSS VL: QSALTQPASVSGSPGQSITISCTGTSSDVGGYNYVSWYQQHPGKAPKLMIYDVSNRPSGVSNRFSGSKSGNTASLTISGLQAEDEADYYCSSYTSSSTFYVFGTGTKVTVLG | 0.201 µg/mL |  |  |
| anti-mutCALR antibody clone 32 (antibody, human IgG1, lambda, V domains shown, also called anti-mutCALR antibody 32) VH: QVQLVQSGAEVKKPGATVKISCKVSGYSFTDYFIHWVQQAPGKGLAWVGLVDPEDGETIYAEKFQGRVTITADTSTDTAYMELSSLRSEDTAVYYCATPGGILTDPDAFDIWGQGTMVTVSS VL: QSALTQPASVSGSPGQSITISCTGTSSDVGGYNYVSWYQQHPGKAPKLMIYEVSNRPSGVSNRFSGSKSGNTASLTISGLQAEDEADYYCSSYTSSSTPYVFGTGTKVTVLG |  |  | binding result [4]: no binding (tested: 250 nM); binding result [5]: binds |
| anti-mutCALR antibody clone 53 (antibody, human IgG1, lambda, V domains shown) VH: QVQLVQSGAEVKKPGASVKVSCKVSGYTLTELSMHWVRQAPGKGLEWMGGFDPEDGETIYAQKFQGRVTMTEDTSTDTAYMELSSLRSEDTAVYYCATDIQGLAEFDYWGQGTLVTVSS VL: QSALTQPRSVSGSPGQSVTISCTGTNTDVGAYIDVSWYQQHPGKAPKLIIYDVSKWPSGVPDRFSGSKSGNTASLTISGLQAEDEADYYCCSYAGNHSFSFGGGTKVTVLG | 9.5 µg/mL | 0.399 µg/mL | Log IC50 of inhibition of cell proliferation, antibody + ruxolitinib (Ba/F3-TPOR/mutCALR type 1 cells) [2]: -0.424 Log IC50 (µg/mL); Log IC50 of inhibition of cell proliferation, antibody alone (Ba/F3-TPOR/mutCALR type 1 cells) [2]: -0.173 Log IC50 (µg/mL) |
| anti-mutCALR antibody clone 52 (antibody, human IgG1, kappa, V domains shown) VH: EVQLVQSGAEVKKPGASVKVSCKVSGYTLTELSMHWVRQAPGKGLEWMGLVDPEDGETIYAEKFQGRVTITADTSTDTAYMELSSPRSEDTAVYYCATTIGDDYFDYWGQGTLVTVSS VL: not shown |  | 0.0337 µg/mL | Log IC50 of inhibition of cell proliferation, antibody + ruxolitinib (Ba/F3-TPOR/mutCALR type 1 cells) [2]: -0.709 Log IC50 (µg/mL) |
| AB2: anti-mutCALR antibody including VH and VL regions of antibody B3 from WO2020175689 fused to human constant regions (antibody, human IgG1, kappa, V domains shown) VH: QVQLQQSGAELVKPGSSVKISCKASGYTFTRNFIHWIKQQPGNGLEWIGWIFPGDGDTEYNQKFNGKATLTADKSSSTAYMQLSSLTSEDSAVYFCARGNYNYEYFDYWGQGVMVTVSS VL: DIQMTQSPASLSASLGETVSIECLASEDIYSYLAWYQQKPGKSPQLLIFAANRLQDGVPSRFSGSGSGTQFSLKISGMQPEDEGDYFCLQGSKFPYTFGPGTKLELNR |  |  | binding result [6]: binds |
| AB3: anti-mutCALR antibody including the BJ095 VH region and the BJ097 VL region from WO2019178362 fused to human constant regions (antibody, human IgG1, kappa, V domains shown) VH: QVQLVQSGAEVKKPGASVKVSCKASGYSFTGYYIHWVRQAPGQGLEWIGYISAYNGASSYNQKFKGRATFTVDTSISTAYMELSRLRSDDTAVYYCASSMDYWGQGTLVTVSS VL: DVVMTQSPLSLPVTLGQPASISCKSSQSLLDSDGKTYLNWLQQRPGQSPKRLIYLVSKLDSGVPDRFSGSGSGTDFTLKISRVEAEDVGVYHCWQGTHFPYTFGQGTKLIEKR |  |  | binding result [6]: binds |
| anti-mutCALR antibody clone 41 (antibody, human IgG1, lambda, V domains shown) VH: EVQLVQSGAEVKKPGASVKVSCKVSGYTLTELSMHWVRQAPGKGLEWMGLVDPEDGETIYAQKFQGRVTMTEDTSTDTAYMELSSLRSEDTAVYYCAREEWSGDGDDAFDIWGQGTMVTVSS VL: QSVLTQPPSVSAAPGQKVTISCSGSSSNIGSYSVSWYQQLPGTAPKLLIYDNNKRPSGIPDRFSGSNSGTSATLGITGLQTGDEADYYCGTWDSSLSAWVFGGGTKLTVLG | 3.98 µg/mL | 0.342 µg/mL |  |
